We go through 6 molecules from patent US10987431B2, “Preparation method of adiposomes, and use thereof” (Institute Of Biophysics, Chinese Academy Of Sciences, priority 2015, dated 2021).

Assay [1] has as its system adiposome a. The assay can be described thus: Recruitment of resident proteins, functional proteins and apolipoprotein to adiposomes (SDS-PAGE, silver staining). Format: binding. On the procedure: a1, 5 μg SMT3-Perilipin-2 proteins, 25 ng Ulp1 and 500 adiposome a prepared in Example 1 were mixed to obtain 1000 mixed system.
a2, After the step a1 was completed, a mixed system was obtained by incubating at room temperature for 1 h (the practical operation may be performed on ice).
a3, After the step a2 was completed, the mixed system was taken to centrifuge at 20000 g for 5 min, and the liquid phase system presented two layers (the upper layer was adiposomes). The lower solution was drawn out and the upper layer was kept.
a4, The upper layer after the step a3 was resuspended into 1000 buffer B and centrifuged at 20000 g for 5 min, and the liquid phase system presented two layers (the upper layer was adiposomes). The lower solution was drawn out and the upper layer was kept.
a5, The upper layer after the step a4 was resuspended into 1000 buffer B and centrifuged at 20000 g for 5 min, and the liquid phase system presented two layers. The lower solution was drawn out and the upper layer was kept (i.e., adiposomes).
5 μg SMT3-Perilipin-2 proteins, adiposomes obtained in the step a5 and the lower solution drawn in the step a3 were all subjected to SDS-PAGE, followed by silver staining detection.
b1, 5 μg MLDS proteins and 50 μl adiposome a prepared in Example 1 were mixed to obtain 1000 mixed system.
b2, After the step b1 was completed, a mixed system was obtained by incubating at room temperature for 1 h (the practical operation may be performed on ice).
b3, After the step b2 was completed, the mixed system was taken to centrifuge at 20000 g for 5 min, and the liquid phase system presented two layers (the upper layer was adiposomes). The lower solution was drawn out and the upper layer was kept.
b4, The upper layer after the step b3 was resuspended into 1000 buffer B and centrifuged at 20000 g for 5 min, and the liquid phase system presented two layers (the upper layer was adiposomes). The lower solution was drawn out and the upper layer was kept.
b5, The upper layer after the step b4 was resuspended into 1000 buffer B and centrifuged at 20000 g for 5 min, and the liquid phase system presented two layers. The lower solution was drawn out and the upper layer was kept (i.e., adiposomes).
5 μg MLDS proteins, adiposomes obtained in the step b5 and the lower solution drawn in the step b3 were all subjected to SDS-PAGE, followed by silver staining detection.
The MLDS proteins in the step (2) were replaced with MDT-28 proteins, without other changes in other steps. The results were seen from lanes 4, 5 and 6 in FIG. 6 (lane 4 was total proteins (MDT-28 proteins), lane 5 was adiposome recruited proteins, and lane 6 was solution proteins). […] The adiposomes recruited with MDT-28 proteins were named as artificial lipid droplet MDT-28.
The MLDS proteins in the step (2) were replaced with Bovine serum albumin, without other changes in other steps. The results were seen from lanes 11, 12 and 13 in FIG. 6 (lane 11 was total proteins (Bovine serum albumin), lane 12 was adiposome recruited proteins, and lane 13 was solution proteins).
SMT3-Perilipin-2 proteins in the (1) of step 1 were replaced with SMT3-ATGL proteins, and 50 μl adiposome a was replaced with 30 μl adiposome a, without other changes in other steps, to obtain adiposomes recruited with ATGL.
5 μg MLDS proteins in the (2) of step 1 were replaced with 9 μg Apo A-I, without other changes in other steps, to obtain adiposomes recruited with Apo A-I. The results were seen from B in FIG. 10 (lane 1 was adiposome recruited proteins, lane 2 was solution proteins, and lane 3 was total proteins (Apo A-I)). […] The adiposome recruited with Apo A-I was named as artificial lipoprotein Apo A-I.

The subject of assay [2] is adiposome a. Nature of the assay: Determination of protein saturation degree on adiposomes. Format: binding. As to conditions: Western blot. How it is done: Determination of protein saturation degree: SMT3-Perilipin-2 proteins, 25 ng Ulp1 and 30 μl adiposome a prepared in Example 1 were mixed to obtain 50 μl mixed system, and the concentrations of SMT3-Perilipin-2 proteins in the mixed system were 0.015 μg/μl, 0.030 μg/μl, 0.056 μg/μl, 0.080 μg/μl, 0.101 μg/μl, 0.137 μg/μl, 0.166 μg/μl or 0.191 μg/μl. Then, artificial lipid droplets were obtained according to the above steps a2 to a5, and were subjected to SDS-PAGE, followed by staining with colloid blue, or were subjected to Western blot detection using Perilipin-2 antibody as primary antibody. The results were seen from C in FIG. 7 (in which a was the result of colloid blue staining, b was the result of Western blot detection).
Determination of protein saturation degree: SMT3-ATGL proteins, and 500 adiposome a prepared in Example 1 were mixed to obtain 1000 mixed system, and the concentrations of SMT3-ATGL proteins in the mixed system were 0.091 μg/μl, 0.132 μg/μl, 0.171 μg/μl, 0.209 μg/μl, 0.244 μg/μl, 0.278 μg/μl or 0.310 μg/μl. Then artificial lipid droplets were obtained according to the a2 to a5 of step 1, and were subjected to SDS-PAGE, followed by silver staining, or were subjected to Western blot detection using ATGL antibody (Cell Signaling Technology, Danvers, Mass., the product item: 2138) as primary antibody. […]
(In general: A western blot detects proteins with antibodies after separation by electrophoresis.)

[3] abbreviates: incubating at room temperature for 1 h, SDS-PAGE, silver staining.

Consider “Apo A-I: apolipoprotein A1 from human, purified per Peitsch et al. 1989”, for which the “proteins recruited to adiposome a” value with adiposome a [1] (setting [3]) is “about 50%”.
Regarding “Bovine serum albumin: purchased from Sigma, product item A4612; control protein [reference compound]”, the “recruitment to adiposome a (in words)” value with adiposome a [1] (setting [3]) was “no Bovine serum albumin was recruited”.

B1: MLDS proteins: lipid droplet resident protein of oleaginous bacterium RHA1, SEQ ID NO: 2 (protein)
chain: MTDQKTIDSVKTSLYAAVGAGDVVVQAVADVVAQVRSRAESTQGDVEERVGGAKERIAGLQEEVTEGVENLRDRLAGLPSELPEELAELREKFTADELRKVAEAYLKVASDLYTSLAERGEDTVERIRKQPVVEEGIGRAETAFGDAVELTEEALGTVARQTRAVGEQAAKLAGRASGRISDTAEGLGEAIADAGDEAALKVLDLGDQAEEASKDAADRVTATAADVQARADKAAPAKHAAPAKKAAPAKAAATPAPAPAKKAAAPAKKAAPAKKA
modifications: MLDS protein
On to B1, for which the “proteins recruited to adiposome a” value in the assay on adiposome a [1] (setting [3]) is “about 80%”.

B2: ATGL: functional protein adipose triacylglycerol lipase, SEQ ID NO: 8 (protein)
chain: MFPREKTWNISFAGCGFLGVYYVGVASCLREHAPFLVANATHIYGASAGALTATALVTGVCLGEAGAKFIEVSKEARKRFLGPLHPSFNLVKIIRSFLLKVLPADSHEHASGRLGISLTRVSDGENVIISHFNSKDELIQANVCSGFIPVYCGLIPPSLQGVRYVDGGISDNLPLYELKNTITVSPFSGESDICPQDSSTNIHELRVTNTSIQFNLRNLYRLSKALFPPEPLVLREMCKQGYRDGLRFLQRNGLLNRPNPLLALPPARPHGPEDKDQAVESAQAEDYSQLPGEDHILEHLPARLNEALLEACVEPTDLLTTLSNMLPVRLATAMMVPYTLPLESALSFTIRLLEWLPDVPEDIRWMKEQTGSICQYLVMRAKRKLGRHLPSRLPEQVELRRVQSLPSVPLSCAAYREALPGWMRNNLSLGDALAKWEECQRQLLLGLFCTNVAFPPEALRMRAPADPAPAPADPASPQHQLAGPAPLLSTPAPEARPVIGALGL
modifications: ATGL protein
For B2, the “protein concentration in the reaction system at which recruitment on adiposomes reached saturation” value in the assay with adiposome a [2] (0.091-0.310 μg/μl SMT3-ATGL proteins, silver staining) is 0.209 µg/µL. In addition, the “fraction of protein recruited to adiposome a” value in the assay with adiposome a [1] (SMT3-ATGL proteins, 30 μl adiposome a, incubating at normal temperature or 4° C.) is recorded as “about ⅓”.

B3: MDT-28 proteins: nematode lipid droplet resident protein, SEQ ID NO: 4 (protein)
chain: MTDVEQPVSVEDQQAQAQSYYDQVLGNAYVQTAINAYTKTKEFHPLLNSTLNSAEEKVSTVGNYAAQKAYDGYNSYYVKPKNTAYEAVSYGTERAKTAVESGKQAAIVGGTFGIGAAVVLTQFSLALSAGGAALVLEQVDSAKKLGSSAISTIKEAELAVEHRIFSALHQAQRIAMVPVEKITENTNSLLDILDGAVQKGLNIEVPPSVNLTIGQRVKNLASLIVQGVSNKLFKAHDHVIDPINERARNYLEQLSQSFVLLDIVREKKTWVIEKSNELSTSVFDFKKTLEEEAQKYKVAPEEMLMKHIQSTSEQLSTQLQSLREKGQNVFGDGTKIDSTIDYLENLKKNFTDAEDVYKVRDEVLNEGRQRIAELSTWTTSLLIISAEWQFEPEDLLIEELYFDAPPPVRTRNLYRNRA
modifications: MDT-28 protein
Consider B3, for which the “proteins recruited to adiposome a” value in the assay on adiposome a [1] (setting [3]) is “about 90%”.

B4: Perilipin-2 proteins: lipid droplet resident protein of mammals, SEQ ID NO: 6, expressed with SMT3 tag cleaved by Ulp1 (protein)
chain: MASVAVDPQPSVVTRVVNLPLVSSTYDLMSSAYLSTKDQYPYLKSVCEMAENGVKTITSVAMTSALPIIQKLEPQIAVANTYACKGLDRIEERLPILNQPSTQIVANAKGAVTGAKDAVTTTVTGAKDSVASTITGVMDKTKGAVTGSVEKTKSVVSGSINTVLGSRMMQLVSSGVENALTKSELLVEQYLPLTEEELEKEAKKVEGFDLVQKPSYYVRLGSLSTKLHSRAYQQALSRVKEAKQKSQQTISQLHSTVHLIEFARKNVYSANQKIQDAQDKLYLSWVEWKRSIGYDDTDESHCAEHIESRTLAIARNLTQQLQTTCHTLLSNIQGVPQNIQDQAKHMGVMAGDIYSVFRNAASFKEVSDSLLTSSKGQLQKMKESLDDVMDYLVNNTPLNWLVGPFYPQLTESQNAQDQGAEMDKSSQETQRSEHKTH
modifications: Perilipin-2 protein
Turning to B4, the “recruitment on adiposomes, saturation (in words)” value with adiposome a [2] (0.015-0.191 μg/μl SMT3-Perilipin-2 proteins, colloid blue staining) is reported as “saturable”. Also, the “proteins recruited to adiposome a” value with adiposome a [1] (setting [3]) was “about 50%”.
